We go through twelve molecules from WO2021228904A1 (dated 2021).

Sequences and labels used below:
B1: SEQ ID NOs: 557/561 (HCVR/LCVR) (antibody, V domains shown)
VH: EVQLVESGGGVVQPGRSLRLSCAASGFTFSSYAMHWVRQAPGKGLEWVAVISYDGSYKYYADSVKGRFTISRDNSKNTLYLQMNSLTAEDTAVYYCAREGSRQWLVIYFDYWGQGTLVTVSS
VL: AIRMTQSPSSLSASVGDRVTITCRASQSISSYLNWYQQKPGKAPKLLIYAASSLQSGVPSRFSGSGSGTDFTLTISSLQPEDFATYYCQQSYTTFIYTFGQGTKLEIK
B2: SEQ ID NOs: 57/61 (HCVR/LCVR) (antibody, V domains shown)
VH: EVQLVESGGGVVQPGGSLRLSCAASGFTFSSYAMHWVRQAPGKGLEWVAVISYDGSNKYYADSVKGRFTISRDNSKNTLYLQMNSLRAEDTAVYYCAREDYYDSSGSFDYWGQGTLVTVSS
VL: QSVLTQPASVSGSPGQSITISCTGTSSDVGGYNYVSWYQQHPGKAPKLMIYDVSNRPSGVSNRFSGSKSGNTASLTISGLQAEDEADYYCSSYTSSSTRHWVFGGGTKLTVL
B3: SEQ ID NOs: 653/657 (HCVR/LCVR) (antibody, V domains shown)
VH: EVQLVESGGGLVQPGRSLRLSCAASGFTFDDYAMHWVRQAPGKGLEWVSGISWNSGSIGYADSVKGRFTISRDNAKNSLYLQMNSLRAEDTALYYCAKMGPDPAHDYGRKNDAFDIWGQGTMVTVSS
VL: DIVMTQSPSSLSASVGDRVTITCRASQSMSSYLNWYQQKPGKAPKLLIYAASSLQSGVPSRFSGSGSGTDFTLTISSLQPEDFATYYCQQSYSTLTFGGGTKLEIK
B4: SEQ ID NOs: 461/465 (HCVR/LCVR) (antibody, V domains shown)
VH: EVQLVESGAEVKKPGSSVKVSCKASGGTFSSYAISWVRQAPGQGLEWMGGIIPIFGTANYAQKFQGRATITTDESTSTAYMELSSLGSEDTAVYYCARTHSYDNSGQYFDYWGQGTMVTVSS
VL: DIVMTQSPATLSLSPGERATLSCRASQSVSSFLAWYQQKPGQAPRLLIYDASNRATGIPARFSGSGSGTDFTLTISSLEPEDFAVYYCQQRSNWPPRLTFGGGTKVDIK
B5: SEQ ID NOs: 493/497 (HCVR/LCVR) (antibody, V domains shown)
VH: EVQLVQSGAEVKKPGESLKISCKGSGYSFTSYWIDWVRQMPGKGLEWMGIFYPGDSDTRYSPSFQGQVTISADKSISTAYLQWSSLKASDTAMYYCARHNPDYYDSSGPLDYWGQGTLVTVSS
VL: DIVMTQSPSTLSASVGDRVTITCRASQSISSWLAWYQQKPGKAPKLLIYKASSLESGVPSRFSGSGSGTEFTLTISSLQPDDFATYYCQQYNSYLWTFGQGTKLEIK
B6: SEQ ID NOs: 421/425 (HCVR/LCVR) (antibody, V domains shown)
VH: EVQLVQSGAEVKKPGASVKVSCKASGYTFTSYDINWVRQATGQGLEWMGWMNPNSGNTGYAQKFQGRVTMTRNTSISTAYMELSSLRSEDTAVYYCARVVGSSWYPVDAFDIWGQGTRVTVSS
VL: QSVLTQPASVSGSPGQSITISCTGTSSDVGGYNYVSWYQQHPGKAPKLMIYDVSNRPSGVSNRFSGSKSGNTASLTISGLQAEDEADYYCSSYTSSSTLVVFGGGTKLTVL
B7: SEQ ID NOs: 73/77 (HCVR/LCVR) (antibody, V domains shown)
VH: EVQLVESGGGLVQPGGSLRLSCAASGFTVTSTYMTWVRRAPGKGLEWVSIIYNDDTTYYADSVKDRVTVSRDDSKNTLYLQMNSLRAEDTAIYYCARGGYYYDPSGYYSRSFSFDYWGQGTLVTVSS
VL: NFMLTQPASVSGSPGQSITISCTGSSSDIAPYTFVSWYQQHSGTAPKLIIYDVRNRPSGISDRFSGSRSGNTASLSISGLQAEDEADYYCSAYTTTSTSWVFGGGTKLTVL
B8: 002_P2C4 (antibody, V domains shown)
VH: QVQLVESGAEVKKPGSSVKVSCKASGGTFSSYGINWVRQAPGQGLEWMGGIIPIFGTANYAQKFQGRVTITTDESTSTAYMELSSLRSEDTAVYYCASFGDDSGDEGVRWGQGTLVTVSS
VL: EIVMTQSPATLSLSPGERATLSCRASQSVSSYLAWYQQKPGQAPRLLIYDASNRATGIPARFSGSGSGTDFTLTISSLEPEDFAVYYCQQRSNWPPYTFGQGTKVEIK
B9: SEQ ID NOs: 621/625 (HCVR/LCVR) (antibody, V domains shown)
VH: QVQLVQSGAEVKKPGASVKVSCKVSGYTLTELSMHWVRQAPGKGLEWMGGFDPEDGETIYAQKFQGRVTMTEDTSTDTAYMELSSLRSEDTAVYYCATAYSVDTAMVRGVGYWGQGTLVTVSS
VL: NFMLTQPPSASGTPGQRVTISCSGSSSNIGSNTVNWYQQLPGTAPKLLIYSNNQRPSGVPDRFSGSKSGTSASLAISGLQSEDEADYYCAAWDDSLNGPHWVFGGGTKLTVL
B10: 001_P1G11 (antibody, V domains shown)
VH: EVQLVQSGTEVKKPGASVKVSCKASGYTFPGYYIHWVRQAPGQGLEWMGWINPNSGVAKSAQKFQGRVTMTRDSSISTVYLDVTSDDTAVYYCARDLVWATVSGTMDVWGQGTTVTVSS
VL: QSALTQPPSASGSPGQSVTISCTGTSSDIGTYNYVSWYQQHPGKAPKLMIYEVTKRPSGVPDRFSGSKSGNTASLTVSGLQADDEGDYYCSSYVGNNNWVFGGGTKLTVL
B11: SEQ ID NOs: 661/665 (HCVR/LCVR) (antibody, V domains shown)
VH: EVQLVESRAEMKKPGESLKISCKGSGYTFTNHWIAWVRQMPGKGLEWMGIIYPGDSDTRYSPSFEGQVTISADKSISTAYLQWSSLKASDTAMYYCARRGYTYGADFYGLDVWGQGTRVTVSS
VL: not shown
B12: SEQ ID NOs: 217/221 (HCVR/LCVR) (antibody, V domains shown)
VH: EVQLVESGGGLVQPGGSLRLSCAASGFTFSSYDMHWVRQTTGKGLQWVSAIGTAGDTYYPGSVKGRFTISRENAKNSLYLQMNSLRAGDTAVYYCARGGDRYPVGYFDLWGRGTLVTVSS
VL: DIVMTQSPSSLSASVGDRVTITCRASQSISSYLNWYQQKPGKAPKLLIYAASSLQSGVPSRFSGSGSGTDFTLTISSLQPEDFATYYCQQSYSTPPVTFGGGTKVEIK

In the assay the target is SARS-CoV-2 receptor binding domain (RBD), amino acids 319-541, octahistidine tag (SARS-CoV-2, UniProt P0DTC2 319-541). As to the kind of experiment: not named there; ELISA in Example 4.
As for B1, the binding result is listed as “binds”.
B2: the binding result is given as “binds”.
As for B3, the entry is “binds”; as for B4, “binds”.
Under B5 stands “binds”.
As for B6, the entry is “binds”; as for B7, “binds”; as for B8, “binds”.
In the case of B9, the binding result is “binds”.
Under B10 stands “binds”.
Under B11 stands “binds”; under B12, “binds”.
